Source: paper PMC8635971, “A nanocompartment system contributes to defense against oxidative stress in Mycobacterium tuberculosis” (eLife, 2021)

Target: the molecule itself
Experiment: SDS-PAGE of unboiled (native state) samples

B1: unencapsulated (naked) DyP purified from E. coli (enzyme)
chain: MAVPAVSPQPILAPLTPAAIFLVATIGADGEATVHDALSKISGLVRAIGFRDPTKHLSVVVSIGSDAWDRLFAGPRPTELHPFVELTGPRHTAPATPGDLLFHIRAETMDVCFELAGRILKSMGDAVTVVDEVHGFRFFDNRDLLGFVDGTENPSGPIAIKATTIGDEDRNFAGSCYVHVQKYVHDMASWESLSVTEQERVIGRTKLDDIELDDNAKPANSHVALNVITDDDGTERKIVRHNMPFGEVGKGEYGTYFIGYSRTPTVTEQMLRNMFLGDPAGNTDRVLDFSTAVTGGLFFSPTIDFLDHPPPLPQAATPTLAAGSLSIGSLKGSPR
notes: dye-decolorizing peroxidase DyP, Rv0799c, Mycobacterium tuberculosis; Tetramer seen after addition of hemin; The methods say the SUMO tag was removed; the results call the protein SUMO-tagged; A tetramer of 144 kDa would fit an untagged monomer of about 36 kDa (surmise); also called free DyP; SUMO-tagged unencapsulated DyP
  stoichiometry N: 4
